Entries after “also recorded” stand apart in the source; their conditions may differ.
Key:
[1] = target: T1, Cx43-expressing N2a cells (Rattus norvegicus, UniProt P08050); experiment: Dual patch clamp: octanol-induced uncoupling, junctional conductance between cell pairs; type: cell-based; conditions: for Effect on octanol-induced uncoupling: Vj 60 mV
T1 construct: expressed in transfected cells; host or cells: N2a (neuroblastoma) cells
Protocol: Experiments were conducted on N2a (Neuroblastoma) cells. Cx43 was expressed either in a lac-switch stable system (induced by 0.1-1.0 mM of IPTG (Zhong et al., “LacSwitch II Regulation of Connexin43 cDNA Expression Enables Gap-junction Single-channel Analysis,” Biotechniques 34(5):1034-1034, 1041-1044, 1046 (2003), which is hereby incorporated by reference in its entirety)) or transiently using an IRES plasmid coding for eGFP (Seki et al., “Modifications in the Biophysical Properties of Connexin43 Channels by a Peptide of the Cytoplasmic Loop Region,” Circ. Res. 95(4):e22-e28 (2004); Seki et al., “Loss of Electrical Communication, but Not Plaque Formation, After Mutations in the Cytoplasmic Loop of Connexin43,” Heart Rhythm. 1(2):227-233 (2004), which are hereby incorporated by reference in their entirety). M257 (a mutant of Cx43 truncated at amino acid 257 (Morley et al., “Intramolecular Interactions Mediate pH Regulation of Connexin43 Channels,” Biophys. J. 70(3):1294-1302 (1996), which is hereby incorporated by reference in its entirety)) was transiently expressed in N2a cells also using an eGFP-containing IRES plasmid. Cells were placed on the stage of an inverted microscope equipped for epifluorescence (Nikon Diaphoto200, Filter: 520 to 560 nm). Junctional current (I) was recorded from eGFP-positive cell pairs in a dual-whole-cell voltage clamp configuration (holding potentials: −40 mV; transjuctional voltage, Vj, +[…]; step duration, 10-30 seconds). Patch pipettes were filled with a cesium-containing solution (Seki et al., “Modifications in the Biophysical Properties of Connexin43 Channels by a Peptide of the Cytoplasmic Loop Region,” Circ. Res. 95(4):e22-e28 (2004); Seki et al., “Loss of Electrical Communication, but Not Plaque Formation, After Mutations in the Cytoplasmic Loop of Connexin43,” Heart Rhythm. 1(2):227-233 (2004), which are hereby incorporated by reference in their entirety). For the low pH experiments, HEPES was replaced by MES (10 mM). Pipette resistance was 4.0-6.0MΩ. Synthetic peptides were diluted in the pipette solution to a final concentration of 0.1 mM. During recording, cells were kept at room temperature in a cesium-containing solution (Seki et al., “Modifications in the Biophysical Properties of Connexin43 Channels by a Peptide of the Cytoplasmic Loop Region,” Circ. Res. 95(4):e22-e28 (2004); Seki et al., “Loss of Electrical Communication, but Not Plaque Formation, After Mutations in the Cytoplasmic Loop of Connexin43,” Heart Rhythm. 1(2):227-233 (2004), which are hereby incorporated by reference in their entirety). For some experiments, octanol (2.0 mM) was superfused during recording. Data acquisition and recording, and criteria for single channel detection were as reported in Seki et al., “Modifications in the Biophysical Properties of Connexin43 Channels by a Peptide of the Cytoplasmic Loop Region,” Circ. Res. 95(4):e22-e28 (2004) and Seki et al., “Loss of Electrical Communication, but Not Plaque Formation, After Mutations in the Cytoplasmic Loop of Connexin43,” Heart Rhythm. 1(2):227-233 (2004), which are hereby incorporated by reference in their entirety.
Compounds were tested for their ability to interfere with octanol-induced uncoupling. Compounds are tested for their ability to interfere with acidification induces uncoupling.
Experiments were modeled after those described in Shibayama et al (2006). Junctional conductance between Cx43-expressing N2a cell pairs was assessed using conventional dual patch clamp. Peptides were diluted in the patch pipette solution and the cells will be exposed either to octanol or to a low intracellular pH. Control experiments were carried out in the absence of the compound. The results are shown in FIGS. 3A-E, which are graphs of the time course of octanol-induced changes in coupling recorded from Cx43-expressing N2a cells. FIGS. 3A-E relate to peptides 2517, 2518, 2529, 2520 and 2624 respectively. […]

[2] = target: T2, carboxyl terminal domain (CT) of Cx43 (Rattus norvegicus, UniProt P08050); experiment: Peptide binding to Cx43CT determined using surface plasmon resonance (SPR); conditions: immobilised recombinant Cx43CT
T2 construct: GST (N, cleaved yes); made in house; host or cells: E. coli BL-21
Protocol: 277(39):36706-36714 (2002), which is hereby incorporated by reference in its entirety. Briefly, cDNA derived from rat Cx43 was inserted into pGEX-6P-2 (Amersham) and expressed in E. coli (BL-21). The resultant GST-fusion protein was cleaved from the GST PreScission Protease® (Amersham Biosciences). The recombinant product after cleavage contained the sequence 255-382 of rCx43 preceded by four additional amino acids (GPLG). Protein concentration was measured using the Bio-Rad DC Protein Assay. Protein purity was assessed by SDS-PAGE.
Recombinant Cx43CT was covalently bound to a carboxylmethyl dextran matrix (Salamon et al., “Surface Plasmon Resonance Spectroscopy as a Tool for Investigating the Biochemical and Biophysical Properties of Membrane Protein Systems. II: Applications to Biological Systems,” Biochim. Biophys. Acta 1331(2):131-152 (1997), which is hereby incorporated by reference in its entirety). Specific peptides were presented and, when feasible, dissociation constants (KD) were calculated from the time course of binding and unbinding of the ligand, using a 1:1 (Langmuir) association and dissociation kinetic model (Biacore software package). In both phases (association and dissociation), the first 5-8 seconds of recording were not included in the fit, to avoid artifacts resulting from peptide distribution within the flow cells (Lang et al., “Surface Plasmon Resonance as a Method to Study the Kinetics and Amplitude of Protein-protein Binding,” in PRACTICAL METHODS IN CARDIOVASCULAR RESEARCH 936-947 (Stefan Dhein, Friedrich Wilhelm Mohr & Mario Delmar eds., 2005), which is hereby incorporated by reference in its entirety).
The peptides shown in table 2 and 3 were tested for binding to the carboxyl terminal domain (CT) of Cx43 using Surface Plasmon Resonance (“SPR”). SPR is a method that was used to identify the original RXPE sequence (Shibayama et al., “Identification of a Novel Peptide that Interferes with the Chemical Regulation of Connexin-43,” Circ. Res. 98:1365-72 (2006)). The amplitude of the response is also a function of the mass of the ligate, and the normalized data according to the individual peptide Mw's are shown in table 3.

[3] = 0.1 mM peptide in internal pipette solution, octanol superfusion

T2 sequence (P08050 255-382): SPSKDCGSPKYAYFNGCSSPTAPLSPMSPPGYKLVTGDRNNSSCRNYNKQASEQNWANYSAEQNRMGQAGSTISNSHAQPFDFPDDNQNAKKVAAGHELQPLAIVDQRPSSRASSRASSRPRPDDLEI
T1 sequence (P08050 whole entry): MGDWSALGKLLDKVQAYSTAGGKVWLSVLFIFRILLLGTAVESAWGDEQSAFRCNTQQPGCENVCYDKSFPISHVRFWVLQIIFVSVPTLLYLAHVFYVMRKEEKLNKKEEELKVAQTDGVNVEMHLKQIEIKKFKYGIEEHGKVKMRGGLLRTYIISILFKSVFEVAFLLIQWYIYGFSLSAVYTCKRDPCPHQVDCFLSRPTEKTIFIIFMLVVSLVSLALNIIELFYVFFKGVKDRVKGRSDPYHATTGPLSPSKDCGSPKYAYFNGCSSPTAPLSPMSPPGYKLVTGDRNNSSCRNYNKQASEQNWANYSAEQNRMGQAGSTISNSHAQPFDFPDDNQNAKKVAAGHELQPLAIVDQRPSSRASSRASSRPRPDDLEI

Substance | Ability to re-open gap junctions closed by the uncoupler (revert uncoupled cells to coupled) [1, 3] | Effect on octanol-induced uncoupling [1, 3] | Average junctional conductance (Gj) as a function of time after onset of octanol ([1]; 0.1 mM peptide in pipette, Gj relative to value before octanol, N=7 pairs) | Cell pairs that remained coupled / uncoupled following onset of octanol superfusion ([1]; seven cell pairs, peptide in pipette, uncoupling = zero junctional current at 60-mV pulse) | SPR respons ([2]; peptide 25 uM) [arbitrary units] | SPR respons ([2]; peptide 100 uM) [arbitrary units] | SPR respons ([2]; peptide 250 uM) [arbitrary units] | SPR respons ([2]; peptide 500 uM) [arbitrary units] | SPR respons ([2]; peptide 1 mM) [arbitrary units]
Ac-Arg-Arg-Asn-Tyr-Gly-Gly-Gly-Ser-Ala-Val-Pro-Phe-Tyr-Ser-His-Ser-Arg-Arg-Asn-Tyr-NH2 (Ac-RRNYGGGSAVPFYSHSRRNY-NH2) [Compound 2366] | able to revert uncoupled cells to couple cells; also recorded: re-open gap junctions that were initially closed by the uncoupler | prevented octanol-induced uncoupling | decreased at first and then increased | uncoupled and then recoupled |  |  |  |  | 
Ac-Arg-Arg-Asn-Tyr-Arg-Arg-Asn-Tyr-NH2 (Ac-RRNYRRNY-NH2) [Compound 2497] |  | prevented octanol-induced uncoupling; also recorded: preventing the uncoupling of GJ |  |  | 30.2 | 84.2 | 201.5 | 327.5 | 565.2

Source: patent US20100298225A1, “PEPTIDE GAP JUNCTION MODULATORS” (priority 2007, published 2010)
